The values below come from article PMC8930179.

The assay has as its target B38-CAP. The assay is described as follows: SEC.

As to B38-CAP (enzyme), the stoichiometry N worked out at 2.
